Target: PSII-LHCII supercomplexes of sucrose gradient band α3 (α3G with glutaraldehyde) (pea (Pisum sativum L., endogenous in leaves)) (UniProt P06585)

Q: Which results are given for “PSII-LHCII supercomplexes of sucrose gradient band α3 (α3G with glutaraldehyde) (from UniProt P06585 1-344; P06006 1-353; P06004 15-473; P14226 82-329; P27520 38-265)”?
A: fast chlorophyll a fluorescence induction (OJIP), O–J curvature parameter C; control (sucrose gradient buffer with cations, paired): 0.35; fast chlorophyll a fluorescence induction (OJIP), O–J curvature parameter C; no salts (salt-free buffer, unpaired): 0.14; fast chlorophyll a fluorescence induction (OJIP), connectivity among PSII units parameter p; control (sucrose gradient buffer with cations, paired): 0.3; fast chlorophyll a fluorescence induction (OJIP), connectivity among PSII units parameter p; no salts (salt-free buffer, unpaired): 0.13; fast chlorophyll a fluorescence induction (OJIP), overall grouping probability p2G; control (sucrose gradient buffer with cations, paired): 0.21; fast chlorophyll a fluorescence induction (OJIP), overall grouping probability p2G; no salts (salt-free buffer, unpaired): 0.15; fast chlorophyll a fluorescence induction (OJIP), probability of connectivity between PSII units ω; control (sucrose gradient buffer with cations, paired): 0.2; fast chlorophyll a fluorescence induction (OJIP), probability of connectivity between PSII units ω; no salts (salt-free buffer, unpaired): 0.06

Reference: publication PMC5577252
